Experimental data from patent US20150086555A1 (THERACLONE SCIENCES, published 2015).

How the values were obtained:
[1] = target: recombinant soluble homotrimeric HA of A/common magpie/Hong Kong/5052/07 (H5N1) (Influenza A virus A/common magpie/Hong …); assay: trimeric HA microarray, transfection supernatant set 3
[2] = target: recombinant homotrimeric HA A/common magpie/Hong Kong/5052/07 H5N1 (Influenza A virus A/common magpie/Hong …); assay: protein microarray, purified IgG, trimeric HA
[3] = target: recombinant soluble homotrimeric HA of A/common magpie/Hong Kong/5052/07 (H5N1) (Influenza A virus A/common magpie/Hong …); assay: HA microarray, BCC supernatant
[4] = target: recombinant soluble homotrimeric HA, A/common magpie/Hong Kong/5052/07 H5N1 (Influenza A virus A/common magpie/Hong …); assay: microarray, transfection SN IgG, trimeric HA

Binder	Trimeric HA Binding: RLU [2] [RLU]	Trimeric HA Binding: RLU [4] [RLU]	other results
TCN-533 (5256_A17a) (antibody, V domains shown) VH: QVQLVQSGADVKKPGSSVTVSCKASGGSFSNYGINWVRQAPGQGLEWMGGIIPLINAPNYAPKFQGRVTITADMFSNIVSLQLTSLRTDDTAVYYCARRKMTTAIDYWGQGTLVTVSS VL: QPVLTQPPSASASLGASVTLTCTLSSAYSNYKVDWYQQRPGKGPRFVMRVGTGGIVGSKGDGIPDRFSVLGSGLNRYLTIKNIQEEDESDYHCGADHGSGSNFVSPYVFGGGTKLTVL [TCN-533 (5256_A17a), listing 1 of 3 here]	–	–	Trimeric HA Binding: RLU [1]: 25200 RLU
TCN-533 (5256_A17a) (antibody, V domains shown) VH: QVQLVQSGADVKKPGSSVTVSCKASGGSFSNYGINWVRQAPGQGLEWMGGIIPLINAPNYAPKFQGRVTITADMFSNIVSLQLTSLRTDDTAVYYCARRKMTTAIDYWGQGTLVTVSS VL: QPVLTQPPSASASLGASVTLTCTLSSAYSNYKVDWYQQRPGKGPRFVMRVGTGGIVGSKGDGIPDRFSVLGSGLNRYLTIKNIQEEDESDYHCGADHGSGSNFVSPYVFGGGTKLTVL [TCN-533 (5256_A17a), listing 2 of 3 here]	19000	–	–
TCN-533 (5256_A17a) (antibody, V domains shown) VH: QVQLVQSGADVKKPGSSVTVSCKASGGSFSNYGINWVRQAPGQGLEWMGGIIPLINAPNYAPKFQGRVTITADMFSNIVSLQLTSLRTDDTAVYYCARRKMTTAIDYWGQGTLVTVSS VL: QPVLTQPPSASASLGASVTLTCTLSSAYSNYKVDWYQQRPGKGPRFVMRVGTGGIVGSKGDGIPDRFSVLGSGLNRYLTIKNIQEEDESDYHCGADHGSGSNFVSPYVFGGGTKLTVL [TCN-533 (5256_A17a), listing 3 of 3 here]	–	–	Trimeric HA Binding: RLU [3]: 44500 RLU
TCN-560 (5084_P10) (antibody, V domains shown) VH: EVQLVESGGGLVQPGGSLRLSCAASGFIFRNYWMSWVRQAPGKGLEWVANIKQDGREKYYVDSLRGRVNISRDNAENSLYLHMNSLRVEDTAVYFCARARMVVVTGDGFDVWGHGTMVTVSS VL: DIQMTQSPSSLSASVGDRVTITCRASQNIKRYFNWYQQKPGKAPKLLIYAASNLENGVPSRFSGSGSGTDFTLTISSLQPEDFATYYCQQSFSKSWTFGQGTNVDIK	–	30500	–
TCN-556 (5089_K12) (antibody, V domains shown) VH: QVQLVQSGAEVKKPGASVKVSCKASGYTFIGYDMHWVRQAPGQGLEWMGWINAKRGGTNYAQKFQGRVTMTRDTSISTAYMELNSLRSDDTAVYYCARGVGSRTTIFGVLNPEFDYWGQGTLVTVSS VL: QSALTQPPSASGSPGQSVTISCTGSSSDVGGYDYVSWYQQHPGKAPKLLIYEVTKRPSGVPDRFSGSKSGNTASLTVSGLQAEDEADYYCSSYAGNYNHVFGPGTKVTVL [TCN-556 (5089_K12), listing 1 of 2 here]	–	20100	–
TCN-556 (5089_K12) (antibody, V domains shown) VH: QVQLVQSGAEVKKPGASVKVSCKASGYTFIGYDMHWVRQAPGQGLEWMGWINAKRGGTNYAQKFQGRVTMTRDTSISTAYMELNSLRSDDTAVYYCARGVGSRTTIFGVLNPEFDYWGQGTLVTVSS VL: QSALTQPPSASGSPGQSVTISCTGSSSDVGGYDYVSWYQQHPGKAPKLLIYEVTKRPSGVPDRFSGSKSGNTASLTVSGLQAEDEADYYCSSYAGNYNHVFGPGTKVTVL [TCN-556 (5089_K12), listing 2 of 2 here]	25600	–	–
